# Reference: publication PMC6978305, “Formation of S. pombe Erh1 homodimer mediates gametogenic gene silencing and meiosis progression” (Scientific Reports, 2020)
# B1: S. pombe Erh1, wild type, recombinant (natural protein, UniProt G2TRN4 1-104, looked up)
# chain: MSPPPAESHIILLIQQGSDPKTRIWSDHCSLRSAIEYIVGVYQTNQAVSEKESIDVSRFFNFFDEIYDCVPLVYDRHFRAYIPHEKQWLLHHAQEYLTAARQIP
# notes: Erh1, S. pombe, full length, from plasmid pMG921 (pGEX-6P1); After 3C cleavage some residues of the N-terminal tag remain (4 of them are seen in protomer B of the crystal structure); also called wild-type Erh1; apo-Erh1; source: E. coli BL21 (DE3) Codon+, purified (GSH-sepharose, 3C cleavage, Superdex 75); not shown: GST, N-terminal, cleaved
# Biological target: the molecule itself
# Test: SEC-MALS; SEC-MALLS of purified recombinant proteins in solution
protein,measurement,value
B1,stoichiometry N,2
